Source: patent US20210318312
Positions count from the first letter of the chain named. Names may count otherwise.

How the values were obtained:
[1] = molecular target: T1, H3 K9 Lipoyl peptide
T1 chain: KQTARKSTGGWW

[2] = molecular target: purified porcine heart pyruvate dehydrogenase (Sigma-Aldrich, cat. #P7032)
[3] = molecular target: T2, lipoyl-modified PDHX peptide
T2 chain: EIETDKAVVTWW

[4] = molecular target: MCD K471 Acetyl peptide
[5] = molecular target: T3, H3 K9 Biotinyl peptide
T3 chain: KQTARKSTGGWW

[6] = molecular target: T4, H3 K9 Acetyl peptide
T4 chain: KQTARKSTGGWW

[7] = molecular target: T5, lipoyl-modified DLAT peptide of the LC-MS deacylation assay
T5 chain: EIETDKATIGWW

[8] = molecular target: T6, DLAT K259 Acetyl peptide
T6 chain: EIETDKATIGW

[9] = molecular target: T7, DLAT K259 Lipoyl peptide
T7 chain: EIETDKATIGWW

B1: recombinant SIRT4 (N-terminally truncated human Sirt4, 33-314 of SEQ ID NO: 2) (protein)
chain: VPASPPLDPEKVKELQRFITLSKRLLVMTGAGISTESGIPDYRSEKVGLYARTDRRPIQHGDFVRSAPIRQRYWARNFVGWPQFSSHQPNPAHWALSTWEKLGKLYWLVTQNVDALHTKAGSRRLTELHGCMDRVLCLDCGEQTPRGVLQERFQVLNPTWSAEAHGLAPDGDVFLSEEQVRSFQVPTCVQCGGHLKPDVVFFGDTVNPDKVDFVHKRVKEADSLLVVGSSLQVYSGYRFILTAWEKKLPIAILNIGPTRSDDLACLKLNSRCGELLPLIDPC
- Km [1]: 814 µM
- LC-MS-based deacylation assay, hydrolysis of the acyl-lysine modification [1]: SIRT4 was able to hydrolyze all three modifications
- catalytic efficiency, fold (another experiment) [1]: lipoyl (28-fold)
- catalytic efficiency, fold against acetylated H3K9 [1]: lipoyl (SEQ ID NO: 3 (30-fold)
- kcat [1]: 0.0019 s⁻¹
- kcat/Km [1]: 2.3 s^-1M^-1
- relative amount of unmodified product generated using 5 µM SIRT4 [1]: 11% (lipoyl-SEQ ID NO: 3)
- PDH activity, immuno-capture colorimetric assay [2]: only active SIRT4 was able to attenuate PDH activity
- proportion of unmodified peptide generated following reaction [3]: 42% for PDHX (SEQ ID NO: 13)
- Km [4]: ND (>2500)
- kcat/Km [4]: 0.0064 s^-1M^-1
- Km [5]: 719 µM
- LC-MS-based deacylation assay, hydrolysis of the acyl-lysine modification [5]: SIRT4 was able to hydrolyze all three modifications
- catalytic efficiency, fold (another experiment) [5]: biotinyl (9-fold)
- catalytic efficiency, fold against acetylated H3K9 [5]: biotinyl (SEQ ID NO: 4) (11-fold)
- kcat [5]: 0.0005 s⁻¹
- kcat/Km [5]: 0.74 s^-1M^-1
- relative amount of unmodified product generated using 5 µM SIRT4 [5]: 3% (biotinyl-SEQ ID NO: 4)
- Km [6]: ND* (>2500)
- LC-MS-based deacylation assay, hydrolysis of the acyl-lysine modification [6]: SIRT4 was able to hydrolyze all three modifications
- kcat/Km [6]: 0.083 s^-1M^-1
- relative amount of unmodified product generated using 5 µM SIRT4 [6]: 0.3% (acetyl-SEQ ID NO: 3)
- proportion of unmodified peptide generated following reaction [7]: increased to 33% for DLAT (SEQ ID NO: 11)
- Km [8]: ND* (>2500)
- catalytic efficiency, fold lower than DLAT lipoyl [8]: this efficiency was still 38-fold lower than DLAT lipoyl
- kcat [8]: 0.0011 s⁻¹
- kcat/Km [8]: 0.2 s^-1M^-1
- Km [9]: 239 µM
- catalytic efficiency, fold against H3K9 lipoyl [9]: 3.5-fold increased efficiency compared to H3K9 lipoyl
- catalytic efficiency, fold against H3K9 lipoyl (another experiment) [9]: 3.3-fold increase in efficiency compared to H3K9 lipoyl
- catalytic efficiency, fold against deacetylation of MCD [9]: ˜1270-fold more efficient at hydrolyzing the DLAT lipoamide
- kcat [9]: 0.0016 s⁻¹
- kcat/Km [9]: 7.65 s^-1M^-1

B2: recombinant SIRT4 H161Y catalytic mutant (protein)
chain: B1 chain with H129Y
- LC-MS-based deacylation assay [1]: observed no significant activity for any of these substrates
- PDH activity, immuno-capture colorimetric assay [2]: only active SIRT4 was able to attenuate PDH activity
- LC-MS-based deacylation assay [5]: observed no significant activity for any of these substrates
- LC-MS-based deacylation assay [6]: observed no significant activity for any of these substrates

B3: recombinant SIRT3 (Sigma, cat. #SRP0117-100UG) (protein)
chain: ISFSVGASSVVGSGGSSDKGKLSLQDVAELIRARACQRVVVMVGAGISTPSGIPDFRSPGSGLYSNLQQYDLPYPEAIFELPFFFHNPKPFFTLAKELYPGNYKPNVTHYFLRLLHDKGLLLRLYTQNIDGLERVSGIPASKLVEAHGTFASATCTVCQRPFPGEDIRADVMADRVPRCPVCTGVVKPDIVFFGEPLPQRFLLHVVDFPMADLLLILGTSLEVEPFASLTEAVRSSVPRLLINRDLVGPLAWHPRSRDVAQLGDVVHGVESLVELLGWTEEMRDLVQRETGKLDGPDK
- catalytic efficiency, fold lower than for DLAT acetyl [9]: this efficiency was 13-fold lower than for DLAT acetyl
- in vitro deacylation kinetics [9]: SIRT3 showed some enzymatic activity towards DLAT lipoyl
